Assay results published in patent publication US12227551B2, “Membrane bound IL12 compositions and methods for tunable regulation” (Obsidian Therapeutics, Inc., priority 2018, dated 2025).

Columns and labels:
[1] = system: phospho-STAT4 in GFP+ T cells; assay: Transactivation: phospho-STAT4 in GFP+ CAR-negative T cells after 1 hour co-culture with CAR-mbIL12 T cells, flow cytometry (Example 6; Table 20); assay type: cell-based, human
Description: Membrane bound IL12 (mbIL12) was expressed in tandem with a CD19-CAR and tested in primary human T cells. On day 0, primary human T cells were stimulated with Dynabeads (T-expander CD3/CD28) at a 3:1 bead:cell ratio in media containing 10% fetal bovine serum (FBS). The next day, lentivirus with mbIL12 in tandem with a CD19-CAR construct was added in the presence of reduced serum (5% FBS). After 7 days of T cell expansion, increasing numbers of CAR+ T cells were cocultured with 10,000 GFP+, CAR-negative T cells. At the end of 1 hour of co-culture, the phospho-STAT4 levels within the GFP+ T cells were quantitated by flow cytometry using reagents and methods from BD. To determine the relative amount of IL12 activity that had accumulated in the T cell supernatants during the hour-long co-culture, cell supernatants from the co-culture were transferred to a new plate of GFP+ T cells and incubated for 1 hour. Phospho-STAT4 levels were measured in the GFP+ T cells incubated with the supernatants from the original co-culture. The transactivation ([…] geometric mean fluorescence (MFI) on GFP+ cells in co-culture) and the bystander effect (pSTAT4 geometric MFI on GFP+ T cells in 1 hour supernatants) for a CAR-IL12+:GFP+ ratio of 64 are shown in Table 20.
The transactivation (pSTAT4 geometric mean fluorescence (MFI) on GFP+ cells in co-culture) and the bystander effect (pSTAT4 geometric MFI on GFP+ T cells in 1 hour supernatants) for the constructs at different ratios are summarized below. For OT-001407, when (a) the CAR-IL12+:GFP+ ratio was 32, the transactivation was 1711 and the bystander effect was −1680, (b) the CAR-IL12+:GFP+ ratio was 16, the transactivation was 1768 and the bystander effect was −1632, (c) the CAR-IL12+:GFP+ ratio was 8, the transactivation was 1433 and the bystander effect was −1603, (d) the CAR-IL12+:GFP+ ratio was 4, the transactivation was 1195 and the bystander effect was −1860, and (e) the CAR-IL12+:GFP+ ratio was 2, the transactivation was 1101 and the bystander effect was −1800. For OT-001356, when (a) the CAR-IL12+:GFP+ ratio was 73.9, the transactivation was 6452 and the bystander effect was −2617, (b) the CAR-IL12+:GFP+ ratio was 37, the transactivation was 6935 and the bystander effect was −1404, (c) the CAR-IL12+:GFP+ ratio was 18.5, the transactivation was 6417 and the bystander effect was −226, (d) the CAR-IL12+:GFP+ ratio was 9.2, the transactivation was 5568 and the bystander effect was −86, (e) the CAR-IL12+:GFP+ ratio was 4.6, the transactivation was 4374 and the bystander effect was −518, and (f) the CAR-IL12+:GFP+ ratio was 2.3, the transactivation was 2839 and the bystander effect was −1093. For OT-001895, when (a) the CAR-IL12+:GFP+ ratio was 34.1, the transactivation was 7699 and the bystander effect was −3724, (b) the CAR-IL12+:GFP+ ratio was 17.1, the transactivation was 7718 and the bystander effect was −2996, (c) the CAR-IL12+:GFP+ ratio was 8.5, the transactivation was 8200 and the bystander effect was −1178, (d) the CAR-IL12+:GFP+ ratio was 4.3, the transactivation was 7172 and the bystander effect was −277, (e) the CAR-IL12+:GFP+ ratio was 2.1, the transactivation was 6095 and the bystander effect was −238, and (f) the CAR-IL12+:GFP+ ratio was 1.1, the transactivation was 4498 and the bystander effect was −136. For OT-002011, when (a) the CAR-IL12+:GFP+ ratio was 75.8, the transactivation was 8086 and the bystander effect was −3531, (b) the CAR-IL12+:GFP+ ratio was 37.9, the transactivation was 8031 and the bystander effect was −2884, (c) the CAR-IL12+:GFP+ ratio was 18.9, the transactivation was 8324 and the bystander effect was −1376, (d) the CAR-IL12+:GFP+ ratio was 9.5, the transactivation was 7765 and the bystander effect was −1133, (e) the CAR-IL12+:GFP+ ratio was 4.7, the transactivation was 6682 and the bystander effect was −566, and (f) the CAR-IL12+:GFP+ ratio was 2.4, the transactivation was 5190 and the bystander effect was −642. […]

[2] = Plasma IL12 and IFNgamma cytokine levels, Nalm6-Luc NSG model (Example 9; Table 31); assay type: in vivo, NSG mice; details: day 14 post T cell transfer
Description: The study was designed to determine if membrane bound IL12 (mbIL12) expressed on CAR-T cells via a CD8 TM domain and CD8 Hinge Region promotes CAR T cell expansion in cis, promotes non-CAR-T cell expansion in trans, and/or increases in vivo CAR T cell efficacy against CD19+ Nalm6 tumors. To test in vivo anti-tumor activity, experiments were performed in NSG mice. Nalm6 cells were transfected with Redifect Red-Fluc (Perkin Elmer) under selection using Puromycin for ˜2 months to generate a line that stably expresses the luciferase reporter; thereafter named Nalm6-Luc. Ten days before tumor implantation, Nalm6-Luc cells were thawed and cultured in puromycin-containing media. On day 0, cells were counted, resuspended in PBS and injected into NSG mice via tail vein. On day 6, mice were imaged for bioluminescent intensity (BLI) and sorted into groups based on their tumor size ensuring that all groups had the same sized tumors. Human T cells were transduced with one of the following constructs as shown in the study design in Table 27:
Thus, anti-tumor efficacy (Table 28) appears to correlate with plasma cytokine levels.

[3] = system: CAR+ T cells and GFP+ T cells; assay: CAR-T and GFP+ T cell expansion in peripheral blood by flow cytometry (Example 9; Table 32); assay type: in vivo, NSG mice; details: cell numbers in 50 uL blood
Description: Next, holding total CAR+ T cell dose constant at either 300,000 or 1 million cells per animal, transduced T cells were intravenously infused into mice on day 7. Tumors were monitored in mice using BLI and the mean of the Total Flux (photons/second) was calculated for each group as an indicator of tumor burden (Table 28). In order to track the trans effect of IL12 expressing CART cells on T cells that lack expression of IL12, 5 million GFP+ T cells (negative for IL12) were co-infused with the IL12-expressing CAR+ T cells, and peripheral blood draws taken over time to evaluate the effect of IL12 on phenotypic changes in GFP+ T cells by flow cytometry analysis.
Thus, anti-tumor efficacy (Table 28) appears to correlate with CAR-T cell expansion.

B1: OT-001356: CD19 CAR; stop; IRES; secreted IL12 (p40 23-328; (G4S)3; p35 57-253); nucleic acid SEQ ID NO: 482 (protein)
chain: IWELKKDVYVVELDWYPDAPGEMVVLTCDTPEEDGITWTLDQSSEVLGSGKTLTIQVKEFGDAGQYTCHKGGEVLSHSLLLLHKKEDGIWSTDILKDQKEPKNKTFLRCEAKNYSGRFTCWWLTTISTDLTFSVKSSRGSSDPQGVTCGAATLSAERVRGDNKEYEYSVECQEDSACPAAEESLPIEVMVDAVHKLKYENYTSSFFIRDIIKPDPPKNLQLKPLKNSRQVEVSWEYPDTWSTPHSYFSLTFCVQVQGKSKREKKDRVFTDKTSATVICRKNASISVRAQDRYYSSSWSEWASVPCSGGGGSGGGGSGGGGSRNLPVATPDPGMFPCLHHSQNLLRAVSNMLQKARQTLEFYPCTSEEIDHEDITKDKTSTVEACLPLELTKNESCLNSRETSFITNGSCLASRKTSFMMALCLSSIYEDLKMYQVEFKTMNAKLLMDPKRQIFLDQNMLAVIDELMQALNFNSETVPQKSSLEEPDFYKTKIKLCILLHAFRIRAVTIDRVMSYLNASGS
[1]; CAR-IL12+:GFP+ ratio 2.3
  transactivation (pSTAT4 geometric MFI on GFP+ cells in co-culture): 2839
[1]; CAR-IL12+:GFP+ ratio 4.6
  transactivation (pSTAT4 geometric MFI on GFP+ cells in co-culture): 4374
[1]; CAR-IL12+:GFP+ ratio 9.2
  transactivation (pSTAT4 geometric MFI on GFP+ cells in co-culture): 5568
[1]; CAR-IL12+:GFP+ ratio 18.5
  transactivation (pSTAT4 geometric MFI on GFP+ cells in co-culture): 6417
[1]; CAR-IL12+:GFP+ ratio 37
  transactivation (pSTAT4 geometric MFI on GFP+ cells in co-culture): 6935
[1]; CAR-IL12+:GFP+ ratio 73.9
  transactivation (pSTAT4 geometric MFI on GFP+ cells in co-culture): 6452
[1]; CAR-IL12+:GFP+ ratio of 64, pSTAT4 geometric MFI on GFP+ cells, 1 hour co-culture
  Transactivation: 6452
[2]; cell dose 0.3 ×10e6
  Day 14 Plasma IFNgamma Levels: 17,565 pg/mL
  Day 14 Plasma IL 12 Levels: 1,455 pg/mL
[2]; cell dose 1 ×10e6
  Day 14 Plasma IFNgamma Levels: 22,154 pg/mL
  Day 14 Plasma IL 12 Levels: 3,853 pg/mL
[3]; cell dose 0.3 ×10e6
  Cis Effect: Numbers of CAR+ Cells on Day 14: 1402.64
  Trans Effect: Numbers of GFP+ Cells on Day 14: 400.00
[3]; cell dose 1 ×10e6
  Cis Effect: Numbers of CAR+ Cells on Day 14: 3789.89
  Trans Effect: Numbers of GFP+ Cells on Day 14: 332.75
